Molecular target: human C1q (human) (UniProt P02745)
Experiment: C1q (50 nM) with 100 nM antibody on TNFa-activated HUVECs; bound C1q detected with biotinylated polyclonal anti-C1q and imaging; normalised to isotype IgG

UniProt P02745, sequence (P02745 23-245, chain 1 of 3): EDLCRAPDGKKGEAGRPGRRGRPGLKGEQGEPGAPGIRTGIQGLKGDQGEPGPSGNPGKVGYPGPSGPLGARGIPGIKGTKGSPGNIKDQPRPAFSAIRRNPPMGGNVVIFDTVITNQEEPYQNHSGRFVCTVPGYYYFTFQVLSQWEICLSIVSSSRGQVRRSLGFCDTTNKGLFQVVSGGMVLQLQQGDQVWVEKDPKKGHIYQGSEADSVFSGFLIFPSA
UniProt P02745, sequence (chain, as listed by the source, chain 2 of 3): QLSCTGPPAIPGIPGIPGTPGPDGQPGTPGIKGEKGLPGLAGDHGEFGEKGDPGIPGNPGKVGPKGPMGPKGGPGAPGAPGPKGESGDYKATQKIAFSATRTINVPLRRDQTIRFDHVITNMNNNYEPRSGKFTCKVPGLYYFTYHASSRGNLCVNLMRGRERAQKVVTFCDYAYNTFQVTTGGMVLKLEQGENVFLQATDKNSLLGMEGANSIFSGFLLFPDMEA
UniProt P02745, sequence (chain, as listed by the source, chain 3 of 3): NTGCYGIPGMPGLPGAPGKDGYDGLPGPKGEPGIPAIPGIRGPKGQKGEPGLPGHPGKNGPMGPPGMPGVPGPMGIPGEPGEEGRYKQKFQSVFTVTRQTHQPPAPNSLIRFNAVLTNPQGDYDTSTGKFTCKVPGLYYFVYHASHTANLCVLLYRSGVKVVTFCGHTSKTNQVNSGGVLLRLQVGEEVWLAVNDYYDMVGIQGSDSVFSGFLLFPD

- % inhibition of binding of C1q to activated endothelial cells: 94%
Substance: control antibody comprising murine heavy and light chain variable regions of the anti-C1q antibody M1 (Annexon Biosciences) with hIgG1 and kappa constant regions

Source: patent EP4670793A1
